{
  "source": "paper PMC3530536",
  "biological_target": "recombinant RRM2 domain (aa 190–265) of human WT TDP-43 (human) (UniProt Q13148)",
  "experiment": "SEC; Superdex 75 10/300 in PBS, 0.5 mL/min; soluble RRM2 2–3 mg/mL after heat at 70°C for 10 min, nucleotide-free",
  "data": [
    {"substance": "recombinant RRM2 domain (aa 190–265) of human WT TDP-43 (from UniProt Q13148 190-265) (domain or fragment)", "values": [
      {"measurement": "stoichiometry N", "result": 2}
    ]}
  ]
}
